Measured values taken from patent US20240117011A1.

Key:
[1] = biological target: spike of variant P.1 v1 on pseudovirus; experiment: cell-based or functional assay
[2] = biological target: full-length spike B.1.617.2 (SARS-CoV-2) (UniProt P0DTC2); experiment: cell-based or functional assay

Substance | neutralization IC50 [1] | pseudotyped virus neutralization [2] | neutralization, fold reduction in activity [2]
CB6 (antibody) | > 10 µg/mL |  | 
LY-CoV555 (antibody) | > 10 µg/mL | > 10000 ng/mL | 
REGN10987 (antibody) |  |  | 4 fold
